We go through six molecules from PMC4585926, “A RANKL mutant used as an inter-species vaccine for efficient immunotherapy of osteoporosis” (Scientific Reports, 2015).

In data set [1] the target is T1, mouse RANK extracellular domain (mouse, UniProt O35305 31-214).
T1 construct: RANK, mouse, extracellular domain (plasmid pET28a-mRANK); also called mRANK; mRANK ectodomain; source: plasmid pET28a-mRANK
T1 sequence (looked up): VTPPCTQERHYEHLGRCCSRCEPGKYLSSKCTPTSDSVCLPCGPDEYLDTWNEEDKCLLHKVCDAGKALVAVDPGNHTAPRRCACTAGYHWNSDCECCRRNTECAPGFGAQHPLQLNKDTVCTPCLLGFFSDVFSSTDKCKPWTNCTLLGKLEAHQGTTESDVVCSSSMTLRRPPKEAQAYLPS
Put plainly: SPR; Biacore 3000; NTA sensor chip charged with 0.3 M NiSO4, mRANK (50 nM, 15 ul) loaded; hRANKL or mutants injected at 0, 0.47, 0.94, 1.88, 3.75, 7.5, 15 and 30 nM; BIAevaluation 4.1. The following applies: both partners purified.

Data set [2] concerns the molecule itself. Put plainly: crystal structure; hRANKL and mRANK mixed 1:1 in 0.1 M Tris pH 7.0, 10 mg/mL; sitting drop at 294 K, microseeded with crushed mRANKL-mRANK crystals; 2.8 Å, space group P63.
Data set [3] deals with the molecule itself. Put plainly: cross-linking; DSS to protein 0:1, 5:1, 10:1 and 20:1, in PBS pH 7.3, on ice 1 hour, stopped with 50 mM Tris pH 7.5; SDS-PAGE.
In data set [4] the target is T2, human RANKL ectodomain (residues 158-317) Arg223Ala (human, UniProt O14788 158-317, Arg223Ala).
T2 sequence: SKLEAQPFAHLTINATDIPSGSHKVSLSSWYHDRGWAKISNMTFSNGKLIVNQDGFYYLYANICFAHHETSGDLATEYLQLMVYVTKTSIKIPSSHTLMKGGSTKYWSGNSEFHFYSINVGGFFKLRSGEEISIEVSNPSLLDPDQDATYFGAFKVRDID
The experiment in a line: SPR.

The target of data set [5] is T3, human RANKL ectodomain (residues 158-317) Arg223Ala plus Asp300Ala (human, UniProt O14788 158-317, Arg223Ala | Asp300Ala).
T3 sequence: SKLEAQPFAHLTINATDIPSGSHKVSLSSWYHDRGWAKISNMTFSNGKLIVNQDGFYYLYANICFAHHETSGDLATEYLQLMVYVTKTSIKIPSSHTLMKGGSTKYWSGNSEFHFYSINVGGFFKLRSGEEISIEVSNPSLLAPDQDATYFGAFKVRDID
Put plainly: SPR.

Data set [6] addresses T4, human RANKL ectodomain (residues 158-317) Asp300Ala (human, UniProt O14788 158-317, Asp300Ala).
T4 sequence: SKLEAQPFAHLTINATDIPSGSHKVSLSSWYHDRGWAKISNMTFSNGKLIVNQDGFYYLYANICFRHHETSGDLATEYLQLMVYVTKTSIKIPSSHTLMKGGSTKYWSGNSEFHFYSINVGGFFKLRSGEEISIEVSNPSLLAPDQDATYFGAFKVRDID
The experiment in a line: SPR.

B1: mouse RANKL (ligand)
chain: KPEAQPFAHLTINAASIPSGSHKVTLSSWYHDRGWAKISNMTLSNGKLRVNQDGFYYLYANICFRHHETSGSVPTDYLQLMVYVVKTSIKIPSSHNLMKGGSTKNWSGNSEFHFYSINVGGFFKLRAGEEISIQVSNPSLLDPDQDATYFGAFKVQDID
notes: RANKL, mouse; the text names the ectodomain in general as residues 161-316 of mRANKL; also called mRANKL
In data set [1], B1 showed a Kd of 0.068 nM.

B2: human RANKL ectodomain (residues 158-317), wild type (ligand, UniProt O14788 158-317, looked up)
chain: SKLEAQPFAHLTINATDIPSGSHKVSLSSWYHDRGWAKISNMTFSNGKLIVNQDGFYYLYANICFRHHETSGDLATEYLQLMVYVTKTSIKIPSSHTLMKGGSTKYWSGNSEFHFYSINVGGFFKLRSGEEISIEVSNPSLLDPDQDATYFGAFKVRDID
notes: RANKL, human, ectodomain, residues 158-317 (plasmid pGEX-6P-hRANKL); Homotrimer in the crystal structure; also called hRANKL; wild-type hRANKL; source: E. coli BL21, purified (glutathione-Sepharose, PreScission cleavage, Superdex 200); not shown: GST, N-terminal, cleaved
As to B2, the “stoichiometry N” value in data set [2] came to 3. In data set [1], this molecule yielded a Kd of 0.156 nM.

B3: human RANKL ectodomain (residues 158-317) Arg223Ala plus Asp300Ala (ligand, UniProt O14788 158-317, looked up)
chain: SKLEAQPFAHLTINATDIPSGSHKVSLSSWYHDRGWAKISNMTFSNGKLIVNQDGFYYLYANICFAHHETSGDLATEYLQLMVYVTKTSIKIPSSHTLMKGGSTKYWSGNSEFHFYSINVGGFFKLRSGEEISIEVSNPSLLAPDQDATYFGAFKVRDID
notes: RANKL, human, ectodomain, residues 158-317, with Arg223Ala and Asp300Ala (mutant of pGEX-6P-hRANKL); Trimeric by chemical cross-linking; also called hRANKL double-site mutant; source: E. coli BL21, purified (glutathione-Sepharose, PreScission cleavage, Superdex 200); not shown: GST, N-terminal, cleaved
For the molecule B3, the “stoichiometry N” value in data set [3] turned out to be 3. For the same molecule, the “fold decrease in affinity against wild-type hRANKL” value (“fold decrease in affinity” for short) in data set [1] was 260 fold.

B4: human RANKL ectodomain (residues 158-317) Asp300Ala (ligand, UniProt O14788 158-317, looked up)
chain: SKLEAQPFAHLTINATDIPSGSHKVSLSSWYHDRGWAKISNMTFSNGKLIVNQDGFYYLYANICFRHHETSGDLATEYLQLMVYVTKTSIKIPSSHTLMKGGSTKYWSGNSEFHFYSINVGGFFKLRSGEEISIEVSNPSLLAPDQDATYFGAFKVRDID
notes: RANKL, human, ectodomain, residues 158-317, with Asp300Ala (mutant of pGEX-6P-hRANKL); also called 300 M; source: E. coli BL21, purified (glutathione-Sepharose, PreScission cleavage, Superdex 200); not shown: GST, N-terminal, cleaved
As to B4, in data set [1], the “fold decrease in affinity” value came to 70 fold.

B5: human RANKL ectodomain (residues 158-317) Arg223Ala (ligand, UniProt O14788 158-317, looked up)
chain: SKLEAQPFAHLTINATDIPSGSHKVSLSSWYHDRGWAKISNMTFSNGKLIVNQDGFYYLYANICFAHHETSGDLATEYLQLMVYVTKTSIKIPSSHTLMKGGSTKYWSGNSEFHFYSINVGGFFKLRSGEEISIEVSNPSLLDPDQDATYFGAFKVRDID
notes: RANKL, human, ectodomain, residues 158-317, with Arg223Ala (mutant of pGEX-6P-hRANKL); source: E. coli BL21, purified (glutathione-Sepharose, PreScission cleavage, Superdex 200); not shown: GST, N-terminal, cleaved
On to B5, for which the “fold decrease in affinity” value in data set [1] turned out to be 20 fold.

B6: mouse RANK extracellular domain (receptor)
chain: VTPPCTQERHYEHLGRCCSRCEPGKYLSSKCTPTSDSVCLPCGPDEYLDTWNEEDKCLLHKVCDAGKALVAVDPGNHTAPRRCACTAGYHWNSDCECCRRNTECAPGFGAQHPLQLNKDTVCTPCLLGFFSDVFSSTDKCKPWTNCTLLGKLEAHQGTTESDVVCSSSMTLRRPPKEAQAYLPS
As for B6, the results for the Kd in data set [4], in data set [5] and in data set [6] were 10.7 nM, 39.4 nM and 2.15 nM, respectively.
